# According to article PMC5693851:
# B1: cystatin F: N6162SN115Q (protein)
# parent chain: MRAAGTLLAFCCLVLSTTGGPSPDTCSQDLNSRVKPGFPKTIKTNDPGVLQAARYSVEKFNNCTNDMFLFKESRITRALVQIVKGLKYMLEVEIGRTTCKKNQHLRLDDCDFQTNHTLKQTLSCYSEVWVVPWLQHFEVPVLRCH
# B2: cystatin F: N6162S (protein)
# parent chain: B1 parent chain
# Legend:
# Settings in all cases: glycan lost; control: wild type
# [1] = conditioned medium, western blot of recipient cell lysates
# [2] = non-reducing western blot of culture medium
# [3] = fluorogenic substrate assays, lysates of transfected or conditioned HeLa
# [4] = non-reducing western blot of recipient cell lysates
# [5] = non-reducing western blot of culture medium, HeLa/Hek293
# [6] = immunofluorescence, endo/lysosomal (LAMP-1) vs Golgin-97 colocalisation
Protein,other: uptake by recipient cells [1],oligomerisation [2],other: inhibition of intracellular peptidases [3],other: proteolytic processing (dimer to monomer conversion) [4],expression_or_secretion [5],localisation_or_trafficking [6]
B1,decreases,no change,abolishes,abolishes,no change,decreases
B2,decreases,no change,decreases,decreases,no change,decreases
